Substitutions are numbered along the chain they refer to.
B1: VRDN-02521 (antibody, V domains shown)
VH: EVQLVQSGGGLVKPGGSLRLSCAASGFTFSSFAMHWVRQAPGKGLEWISVIDTRGATYYADSVKGRFTISRDNAKNSLYLQMNSLRAEDTAVYYCARLGNHYYGMDVWGQGTTVTVSS
VL: EIVLTQSPGTLSVSPGERATLSCRASQSIGSSLHWYQQKPGQAPRLLIKYASQSLSGIPDRFSGSGSGTDFTLTISRLEPEDFAVYYCHQSSRLPHTFGQGTKVEIK
B2: VRDN-02532 (antibody, V domains shown)
VH: B1 VH with H101F
VL: B1 VL with S28H
B3: VRDN-02528 (antibody, V domains shown)
VH: B1 VH with H101F
VL: B1 VL with R24H
B4: VRDN-02539 (antibody, V domains shown)
VH: B1 VH with H101F
VL: B1 VL with Y50H
B5: VRDN-02523 (antibody, V domains shown)
VH: B1 VH with H101F, Y103H
VL: B1 VL
B6: VRDN-02533 (antibody, V domains shown)
VH: B1 VH with H101F
VL: B1 VL with I29H
B7: VRDN-02534 (antibody, V domains shown)
VH: B1 VH with H101F
VL: B1 VL with G30H
B8: VRDN-02542 (antibody, V domains shown)
VH: B1 VH with H101F
VL: B1 VL with Q53H
B9: VRDN-02547 (antibody, V domains shown)
VH: B1 VH with H101F
VL: B1 VL with S91H
B10: VRDN-02529 (antibody, V domains shown)
VH: B1 VH with H101F
VL: B1 VL with A25H
B11: VRDN-02522 (antibody, V domains shown)
VH: B1 VH with H101F, Y102H
VL: B1 VL
B12: VRDN-02545 (antibody, V domains shown)
VH: B1 VH with H101F
VL: B1 VL with S56H
B13: VRDN-02537 (antibody, V domains shown)
VH: B1 VH with H101F
VL: B1 VL with L33H
B14: VRDN-02540 (antibody, V domains shown)
VH: B1 VH with H101F
VL: B1 VL with A51H
B15: VRDN-02536 (antibody, V domains shown)
VH: B1 VH with H101F
VL: B1 VL with S32H
B16: VRDN-02527 (antibody, V domains shown)
VH: B1 VH with H101F, V107H
VL: B1 VL
B17: VRDN-02548 (antibody, V domains shown)
VH: B1 VH with H101F
VL: B1 VL with S92H
B18: VRDN-02544 (antibody, V domains shown)
VH: B1 VH with H101F
VL: B1 VL with L55H
B19: VRDN-02504 (antibody, V domains shown)
VH: B1 VH with F29H, H101F
VL: B1 VL
B20: VRDN-02543 (antibody, V domains shown)
VH: B1 VH with H101F
VL: B1 VL with S54H
B21: VRDN-02535 (antibody, V domains shown)
VH: B1 VH with H101F
VL: B1 VL with S31H
B22: VRDN-02549 (antibody, V domains shown)
VH: B1 VH with H101F
VL: B1 VL with R93H
B23: VRDN-02503 (antibody, V domains shown)
VH: B1 VH with T28H, H101F
VL: B1 VL
B24: VRDN-02525 (antibody, V domains shown)
VH: B1 VH with H101F, M105H
VL: B1 VL
B25: VRDN-02524 (antibody, V domains shown)
VH: B1 VH with H101F, G104H
VL: B1 VL
B26: VRDN-02502 (antibody, V domains shown)
VH: B1 VH with F27H, H101F
VL: B1 VL
B27: VRDN-02546 (antibody, V domains shown)
VH: B1 VH with H101F
VL: B1 VL with Q90H
B28: VRDN-02530 (antibody, V domains shown)
VH: B1 VH with H101F
VL: B1 VL with S26H
B29: VRDN-02531 (antibody, V domains shown)
VH: B1 VH with H101F
VL: B1 VL with Q27H
B30: VRDN-02541 (antibody, V domains shown)
VH: B1 VH with H101F
VL: B1 VL with S52H

molecular target: Recombinant human his-tagged IGF 1R extracellular domain protein (human) (UniProt P08069); experiment: SPR, captured IgG, IGF-1R ECD-his analyte, dissociation pH 6

Kd [nM]	koff [s⁻¹]	kon [M⁻¹ s⁻¹]	Binder
0.05	1e-06	20000	B1
0.0292	1e-06	34300	B2
0.0246	1e-06	40600	B3
21.6	0.000584	27000	B4
0.036	1e-06	27800	B5
0.0493	1e-06	20300	B6
0.0393	1.17e-06	29800	B7
0.0389	1e-06	25700	B8
0.0251	1e-06	39800	B9
0.0541	1e-06	18500	B10
0.0376	1e-06	26600	B11
0.027	1e-06	37000	B12
0.036	1e-06	27800	B13
0.0662	1e-06	15100	B14
0.0228	1e-06	43900	B15
0.0258	1e-06	38800	B16
0.0251	1e-06	39800	B17
0.0275	1e-06	36300	B18
0.0242	1e-06	41300	B19
0.025	1e-06	40000	B20
0.0273	1e-06	36600	B21
0.0251	1e-06	39800	B22
0.0262	1e-06	38100	B23
4.58	0.000147	32100	B24
1.22	4.66e-05	38300	B25
0.0375	1e-06	26700	B26
0.0259	1e-06	38600	B27
0.029	1e-06	34500	B28
0.0319	1e-06	31300	B29
0.028	1e-06	35700	B30

molecular target: Recombinant human his-tagged IGF 1R extracellular domain protein (human) (UniProt P08069); experiment: SPR, captured IgG, IGF-1R ECD-his analyte, dissociation pH 7.4

Kd [nM]	koff [s⁻¹]	kon [M⁻¹ s⁻¹]	Binder
1.48	7.2e-05	48500	B1
0.316	4.08e-05	129000	B2
0.252	3.55e-05	141000	B3
0.00588	1e-06	170000	B4
0.717	2.74e-05	38200	B5
0.519	4.45e-05	85700	B6
0.0051	1e-06	196000	B7
0.00535	1e-06	187000	B8
0.0084	1e-06	119000	B9
3.8	0.000103	27100	B10
0.37	1.73e-05	46700	B11
0.622	3.03e-05	48700	B12
0.802	7.16e-05	89300	B13
0.434	4.25e-05	97900	B14
0.00746	1e-06	134000	B15
0.225	2.16e-05	95900	B16
0.721	8.72e-05	121000	B17
0.483	6.18e-05	128000	B18
5.08	0.000186	36600	B19
0.391	4.38e-05	112000	B20
0.363	4.07e-05	112000	B21
0.327	3.89e-05	119000	B22
1.53	0.000161	105000	B23
0.00758	1e-06	132000	B24
0.00752	1e-06	133000	B25
0.0244	4.1e-06	168000	B26
0.491	5.94e-05	121000	B27
0.102	1.53e-05	150000	B28
0.85	2.1e-05	24700	B29
0.00654	1e-06	153000	B30

— patent publication US20240343814A1
